Measurements as given in article PMC6393559.

Biological target: Adnectin C-PAS#1(200)
Assay: SPR; Biacore X100, 25 °C, HBS-EP buffer pH 7.4, CM5 chip; His-tagged Adnectins captured on amine-coupled anti-His antibody (about 300 RU); rhVEGFR2 injected at 50-3.125 ug/ml; multi cycle kinetics, contact 180 s, dissociation 500 s

Kd: 0.159 nM
koff: 2.48e-05 s⁻¹
kon: 156000 M⁻¹ s⁻¹
Substance: rhVEGFR2 (Genescript) (from UniProt P35968 20-764) (receptor)
